Values quoted from earlier work as cited in article PMC9618554.

Target: insulin receptor site-2' (Homo sapiens) (UniProt P06213)

Sequence of insulin (P01308 90-110): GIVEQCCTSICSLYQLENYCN

Kd: 400 nM
Substance: insulin (from UniProt P01308)
